Test system: Escherichia coli TOP10
Assay: shrunken log2 fold change of peptide-encoding DNA abundance (4.5 h post-induction vs induction); higher = less antimicrobial activity (less host growth inhibition)
Conditions: time post-induction: 4.5 h; library: site-saturation at positions 5, 18, 19, 20
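Also: peptides expressed intracellularly from a pBAD plasmid library in pooled LB shake-flask culture, induced with 0.3% L-arabinose, DNA abundance read by NGS, three biological replicates, DESeq2 with apeglm shrinkage.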

Row | Sequence | shrunken log2 fold change
1 | RRIRPRPPRLPRPRPRPPQRPRP | 0.43
2 | RRIRPRPPRLPRPRPRPPRNPRP | 0.315
3 | RRIRPRPPRLPRPRPRPPRWPRP | 0.495
4 | RRIRPRPPRLPRPRPRPPSCPRP | -0.058
5 | RRIRPRPPRLPRPRPRPPSKPRP | 0.105
6 | RRIRPRPPRLPRPRPRPPVIPRP | 0.332
7 | RRIRPRPPRLPRPRPRPPWTPRP | 0.267
8 | RRIRPRPPRLPRPRPRPPYIPRP | -0.251
9 | RRIRPRPPRLPRPRPRPPYPPRP | -0.0364
10 | RRIRPRPPRLPRPRPRPPYRPRP | 0.103
11 | RRIRPRPPRLPRPRPRPPYTPRP | -0.232
12 | RRIRPRPPRLPRPRPRPQAKPRP | 0.277
13 | RRIRPRPPRLPRPRPRPQAVPRP | 0.0933
14 | RRIRPRPPRLPRPRPRPQDDPRP | -0.367
15 | RRIRPRPPRLPRPRPRPQDGPRP | 0.0623
16 | RRIRPRPPRLPRPRPRPQFAPRP | 0.218
17 | RRIRPRPPRLPRPRPRPQFRPRP | -0.0113
18 | RRIRPRPPRLPRPRPRPQFSPRP | -0.184
19 | RRIRPRPPRLPRPRPRPQGTPRP | 0.306
20 | RRIRPRPPRLPRPRPRPQHAPRP | 0.041
21 | RRIRPRPPRLPRPRPRPQLIPRP | -0.108
22 | RRIRPRPPRLPRPRPRPQLSPRP | -0.485

Row | Sequence | shrunken log2 fold change
23 | RRIRPRPPRLPRPRPRPQMSPRP | 0.0674
24 | RRIRPRPPRLPRPRPRPQNIPRP | -0.456
25 | RRIRPRPPRLPRPRPRPQNTPRP | -0.407
26 | RRIRPRPPRLPRPRPRPQQGPRP | 0.14
27 | RRIRPRPPRLPRPRPRPQQRPRP | 0.0201
28 | RRIRPRPPRLPRPRPRPQRGPRP | 0.251
29 | RRIRPRPPRLPRPRPRPQSMPRP | -0.609
30 | RRIRPRPPRLPRPRPRPQSPPRP | 0.0713
31 | RRIRPRPPRLPRPRPRPQTHPRP | -0.272
32 | RRIRPRPPRLPRPRPRPQVAPRP | -0.0363
33 | RRIRPRPPRLPRPRPRPQVCPRP | 0.129
34 | RRIRPRPPRLPRPRPRPQVTPRP | -0.0231
35 | RRIRPRPPRLPRPRPRPQYVPRP | -0.184
36 | RRIRPRPPRLPRPRPRPQYWPRP | -0.0415
37 | RRIRPRPPRLPRPRPRPRCGPRP | 0.282
38 | RRIRPRPPRLPRPRPRPRCIPRP | -0.2
39 | RRIRPRPPRLPRPRPRPRCSPRP | 0.00477
40 | RRIRPRPPRLPRPRPRPREIPRP | 0.44
41 | RRIRPRPPRLPRPRPRPRFIPRP | -0.184
42 | RRIRPRPPRLPRPRPRPRGTPRP | 0.0776
43 | RRIRPRPPRLPRPRPRPRHKPRP | -0.0467
44 | RRIRPRPPRLPRPRPRPRHQPRP | 0.31

Row | Sequence | shrunken log2 fold change
45 | RRIRPRPPRLPRPRPRPRHRPRP | 0.177
46 | RRIRPRPPRLPRPRPRPRILPRP | 0.0605
47 | RRIRPRPPRLPRPRPRPRIMPRP | -0.0771
48 | RRIRPRPPRLPRPRPRPRKHPRP | 0.0952
49 | RRIRPRPPRLPRPRPRPRMQPRP | 1.48
50 | RRIRPRPPRLPRPRPRPRNQPRP | 0.00569
51 | RRIRPRPPRLPRPRPRPRPCPRP | 0.188
52 | RRIRPRPPRLPRPRPRPRPGPRP | 0.555
53 | RRIRPRPPRLPRPRPRPRPTPRP | 0.869
54 | RRIRPRPPRLPRPRPRPRQFPRP | 0.556
55 | RRIRPRPPRLPRPRPRPRQPPRP | 0.113
56 | RRIRPRPPRLPRPRPRPRRAPRP | 0.525
57 | RRIRPRPPRLPRPRPRPRSIPRP | -0.149
58 | RRIRPRPPRLPRPRPRPRSVPRP | 0.0746
59 | RRIRPRPPRLPRPRPRPRWTPRP | 0.399
60 | RRIRPRPPRLPRPRPRPSAKPRP | 0.528
61 | RRIRPRPPRLPRPRPRPSCCPRP | -0.0575
62 | RRIRPRPPRLPRPRPRPSCKPRP | -0.189
63 | RRIRPRPPRLPRPRPRPSEVPRP | -0.079
64 | RRIRPRPPRLPRPRPRPSEYPRP | -0.366
65 | RRIRPRPPRLPRPRPRPSFCPRP | 0.0813
66 | RRIRPRPPRLPRPRPRPSGWPRP | 0.57

Row | Sequence | shrunken log2 fold change
67 | RRIRPRPPRLPRPRPRPSMEPRP | -0.157
68 | RRIRPRPPRLPRPRPRPSMIPRP | -0.547
69 | RRIRPRPPRLPRPRPRPSMMPRP | -0.412
70 | RRIRPRPPRLPRPRPRPSNEPRP | -0.406
71 | RRIRPRPPRLPRPRPRPSNKPRP | -0.56
72 | RRIRPRPPRLPRPRPRPSPCPRP | -0.0121
73 | RRIRPRPPRLPRPRPRPSPDPRP | 0.146
74 | RRIRPRPPRLPRPRPRPSRFPRP | 0.227
75 | RRIRPRPPRLPRPRPRPSRGPRP | 0.839
76 | RRIRPRPPRLPRPRPRPSRKPRP | 0.0349
77 | RRIRPRPPRLPRPRPRPSRPPRP | 0.133
78 | RRIRPRPPRLPRPRPRPSRQPRP | 0.357
79 | RRIRPRPPRLPRPRPRPSSHPRP | -0.417
80 | RRIRPRPPRLPRPRPRPSTAPRP | -0.105
81 | RRIRPRPPRLPRPRPRPSVIPRP | -0.00563
82 | RRIRPRPPRLPRPRPRPSWPPRP | 0.359
83 | RRIRPRPPRLPRPRPRPTAAPRP | 0.227
84 | RRIRPRPPRLPRPRPRPTCKPRP | -0.0419
85 | RRIRPRPPRLPRPRPRPTETPRP | 0.132
86 | RRIRPRPPRLPRPRPRPTFAPRP | 0.409
87 | RRIRPRPPRLPRPRPRPTFWPRP | 0.333
88 | RRIRPRPPRLPRPRPRPTHHPRP | 0.264

Row | Sequence | shrunken log2 fold change
89 | RRIRPRPPRLPRPRPRPTKFPRP | -0.0516
90 | RRIRPRPPRLPRPRPRPTKIPRP | -0.0764
91 | RRIRPRPPRLPRPRPRPTKPPRP | 0.323
92 | RRIRPRPPRLPRPRPRPTMDPRP | -0.125
93 | RRIRPRPPRLPRPRPRPTMEPRP | 0.0735
94 | RRIRPRPPRLPRPRPRPTMKPRP | -0.179
95 | RRIRPRPPRLPRPRPRPTNKPRP | -0.208
96 | RRIRPRPPRLPRPRPRPTNYPRP | -0.542
97 | RRIRPRPPRLPRPRPRPTREPRP | 0.177
98 | RRIRPRPPRLPRPRPRPTSHPRP | -0.235
99 | RRIRPRPPRLPRPRPRPTTKPRP | 0.253
100 | RRIRPRPPRLPRPRPRPTTWPRP | 0.176
101 | RRIRPRPPRLPRPRPRPTWKPRP | -0.0108
102 | RRIRPRPPRLPRPRPRPTYEPRP | 0.0844
103 | RRIRPRPPRLPRPRPRPTYHPRP | -0.274
104 | RRIRPRPPRLPRPRPRPTYWPRP | -0.00192
105 | RRIRPRPPRLPRPRPRPVACPRP | -0.0233
106 | RRIRPRPPRLPRPRPRPVAGPRP | 0.308
107 | RRIRPRPPRLPRPRPRPVCRPRP | -0.0794
108 | RRIRPRPPRLPRPRPRPVCWPRP | 0.533
109 | RRIRPRPPRLPRPRPRPVEMPRP | 0.0666
